Source: patent publication US20240352100A1 (AJOU UNIVERSITY INDUSTRY ACADEMIC COOPERATION FOUNDATION, published 2024)

Legend:
[1] = biological target: β-catenin (endogenous, in colon cancer cell lines) (human) (UniProt P35222); assay: cell-based or functional assay
[2] = biological target: T1, His8-Avi-tag-β-catenin (recombinant, biotinylated, from E. coli) (human, UniProt P35222 1-781, limits assumed, biotinylated (Avi-tag, co-expressed with pBirAcm in the presence of D-Biotin)); assay: BLI (Octet QKe), antibody captured on AHC sensor, β-catenin 200-12.5 nM, 1:1 model
T1 construct: also called purified β-catenin; recombinant antigen protein β-catenin; not shown: His8-Avi tag
T1 sequence (looked up): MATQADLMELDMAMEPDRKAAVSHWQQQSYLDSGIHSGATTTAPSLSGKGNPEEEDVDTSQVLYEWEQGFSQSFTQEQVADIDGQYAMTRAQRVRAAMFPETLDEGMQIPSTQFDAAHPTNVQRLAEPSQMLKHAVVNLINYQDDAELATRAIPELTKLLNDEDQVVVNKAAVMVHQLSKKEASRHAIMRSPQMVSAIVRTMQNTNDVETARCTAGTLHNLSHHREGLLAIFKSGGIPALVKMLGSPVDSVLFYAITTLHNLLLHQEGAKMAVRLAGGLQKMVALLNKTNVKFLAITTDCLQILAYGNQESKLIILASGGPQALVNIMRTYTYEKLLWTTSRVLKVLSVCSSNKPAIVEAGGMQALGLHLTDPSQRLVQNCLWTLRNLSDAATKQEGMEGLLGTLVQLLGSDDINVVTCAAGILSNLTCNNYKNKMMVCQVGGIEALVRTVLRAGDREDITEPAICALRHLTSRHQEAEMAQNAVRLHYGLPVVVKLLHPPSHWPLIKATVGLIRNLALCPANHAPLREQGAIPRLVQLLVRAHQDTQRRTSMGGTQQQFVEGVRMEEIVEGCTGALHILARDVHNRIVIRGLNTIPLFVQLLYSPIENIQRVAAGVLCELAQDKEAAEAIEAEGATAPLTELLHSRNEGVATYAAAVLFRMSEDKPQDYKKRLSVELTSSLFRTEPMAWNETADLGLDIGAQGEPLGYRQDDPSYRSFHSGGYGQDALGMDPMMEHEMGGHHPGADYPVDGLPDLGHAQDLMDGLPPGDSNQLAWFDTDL

[3] = biological target: T1, His8-Avi-tag-β-catenin (recombinant, …); assay: BLI (Octet QKe): antibody captured on AHC sensor, β-catenin at 200, 100, 50, 25, 12.5 nM, 1:1 binding model

inBC2-(A6)-VHL152-213 (antibody) was tested. Which β-catenin degradation activity (Western blot, HCT116, 2 µM, 12 h) [1] did it give?
Its β-catenin degradation activity (Western blot, HCT116, 2 µM, 12 h) is 25%.

inBC2-(G5)-VHL152-213 (antibody) was tested. Which β-catenin degradation activity (Western blot, HCT116, 2 µM, 12 h) [1] did it give?
Its β-catenin degradation activity (Western blot, HCT116, 2 µM, 12 h) is 5%.

inBC2-(G10)-VHL152-213 (antibody) was tested. Which β-catenin degradation activity (Western blot, HCT116, 2 µM, 12 h) [1] did it give?
The β-catenin degradation activity (Western blot, HCT116, 2 µM, 12 h) was 8%.

inBC2-SOCS2153-198 (antibody) was tested. Which β-catenin degradation ability (Western blot, three colon cancer cell lines) [1] did it give?
The β-catenin degradation ability (Western blot, three colon cancer cell lines) was 40%.

And the β-catenin degradation ability compared to inBC2-VHL152-213 (Western blot) (% higher than inBC2-VHL152-213) [1]?
The β-catenin degradation ability compared to inBC2-VHL152-213 (Western blot) (% higher than inBC2-VHL152-213) was 20.

Which results are given for inBC2-VHL152-213 (antibody)?
decrease in the amount of β-catenin (Western blot, HCT116, with or without MLN4924 or Bortezomib) [1]: 30%; β-catenin degradation activity (Western blot, DLD-1, 2 µM, 12 h) [1]: 15%; β-catenin degradation activity (Western blot, HCT116, 2 µM, 12 h) [1]: 36%; β-catenin degradation activity (Western blot, SW480, DLD-1, HCT116) [1]: 20%; β-catenin degradation activity over time (Western blot, DLD-1, 2 µM) [1]: 25%

B1: inBC0 (antibody, V domains shown)
VH: QVQLVESGGGVVQPGRSLRLSCAASGFTFSSYPMHWVRQAPGKGLEWVAVVSYDGSYKYYADSVKGRLTISRDNSKNTLYLQMNSLRAEDTAVYYCARATVRGVTKIRGVFDSWGRGALVTVSS
VL: DYQLTQSPSSLSASVGDRVTITCKSSQSLLNSRDGKNYLAWYQQKPGKAPKMLIYWASTRESGVPSRFSGSGSGTDFTLTISSLQPEDFATYFCQQYWYWMFTFGQGTKVEIKR
notes: Complete immunoglobulin made by putting the anti-β-catenin VH into inRas37; also called anti-β-catenin cytosol-penetrating interfering antibody inBC0
How did the Kd [2] turn out when B1 was run?
The Kd was 5.75 nM.

What about the koff [3] of the same molecule?
Its koff is 0.000233 s⁻¹.

And the kon [3]?
Its kon is 40500 M⁻¹ s⁻¹.

B2: inBC2 (antibody, V domains shown)
VH: QVQLVESGGGVVQPGRSLRLSCAASGFTFSSYPMHWVRQAPGKGLEWVAVVSYDGSYKYYADSVKGRLTISRDNSKNTLYLQMNSLRAEDTAVYYCARATVRGVTKIRGVFDSWGQGTLVTVSS
VL: DYQLTQSPSSLSASVGDRVTITCKSSQSLLNSRDGKNYLAWYQQKPGKAPKMLIYWASTRESGVPSRFSGSGSGTDFTLTISSLQPEDFATYFCQQYWYWMFTFGQGTKVEIKR
notes: Complete immunoglobulin; FR4 back-mutated form of inBC0; also called anti-β-catenin cytosol-penetrating interfering antibody inBC2; anti-β-catenin iMab
What does the source list for B2?
Kd [2]: 4.92 nM; koff [3]: 0.000219 s⁻¹; kon [3]: 44600 M⁻¹ s⁻¹
